Reference: patent EP4806914A1 (Daicel Corporation, dated 2026)

Molecular target: T1, AAV9 empty capsid (adeno-associated virus serotype 9 (AAV9), Assembled icosahedral particle of about 60 copies of VP1, VP2 and VP3 (nested forms of one cap gene product) with no nuc [CUT])
T1 construct: Assembled viral particle without nucleic acid, adsorbed to a Maxisorp plate; It has the same capsid protein as the full capsid and differs only in the packaged nucleic acid; also called AAV9 empty capsid sample; AAV empty capsids
Assay: ELISA, 0.1 ug AAV9 coated on Maxisorp plate, scFv detected with HRP-labeled anti-His-Tag antibody, A450-A650; reference: blank (BSA)

B1: second anti-AAV-scFv [2] (scFv)
scFv: QSLEESGGDLVKPGASLTLTCTASGFSFSSNYWMFWVRQAPGKGLEWIAHIYGGSSGSTYYASWAKGRFTISKTSSTTVTLQMTSLTAADTATYFCATVDNGYSDLKLWGPGTLVTVTSGGGGSGGGGSGGGGSELVLTQTADSVEAGVGGTVTIKCQASQSIRNWLSWYQQKPGQPPKLLISRASTLASGVPSRFSGSGSGTEFTLTISDLECDDGATYYCQSSFYADSGEPAFGGGTEVDIKRSAAAGGGSEQKLISEEDLGGGSHHHHHH
notes: Rabbit-derived scFv from a phage library, purified from E. coli culture supernatant with His MultiTrap FF; also called second anti-AAV full capsid molecule
Q: How did the “IE/IB (ratio of ELISA absorbance for the empty capsid sample to that for the blank (BSA))” value turn out when B1 was run?
A: Its value is 3.7 ratio.
